# Data as given in the supplement of paper PMC7125110.
# ± gives the standard error. For part of these data: This sample holds only a part of the variants without activity.
# B1: glmS ribozyme (parent)
# chain: AUAAAAGCGCCAGAACUACAGAAAUGUAGUUGACGAGGAGGAGGUUUAUCGAAUUUUCGGCGGAUGCCUCCAAA
# Assays:
# Details in all cases: with glucosamine-6-phosphate
# glucosamine-6-phosphate [1] = variants of: B1; experiment: kcat; higher = faster cleavage; RNA array
# Procedure, shortened: (§1)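 Glucosamine-6-phosphate (40 μM to 10 mM) in HEPES/KCl/Mg(OAc)2 buffer was flowed over sequenced MiSeq chips, and tiles were imaged over ~14 h. Barcoded ribozyme variants there had been transcribed in situ by E. coli RNA polymerase and were tracked through a hybridised Cy3 probe at 37 °C. One- or two-exponential decay fits to per-tile medians, normalised to baseline and to non-cleaving reference variants, gave kobs. kcat and KM came from weighted Michaelis–Menten fits across concentrations.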
# glucosamine-6-phosphate [2] = variants of: B1; experiment: KM; higher = weaker cofactor use; RNA array
# Procedure, shortened: as §1
# glucosamine-6-phosphate [3] = variants of: B1; experiment: self-cleavage kobs at 40 uM GlcN6P; higher = faster cleavage; RNA array
# Procedure, shortened: as §1
# glucosamine-6-phosphate [4] = variants of: B1; experiment: self-cleavage kobs at 160 uM GlcN6P; higher = faster cleavage; RNA array
# Procedure, shortened: as §1
# glucosamine-6-phosphate [5] = variants of: B1; experiment: self-cleavage kobs at 640 uM GlcN6P; higher = faster cleavage; RNA array
# Procedure, shortened: as §1
# glucosamine-6-phosphate [6] = variants of: B1; experiment: self-cleavage kobs at 2500 uM GlcN6P; higher = faster cleavage; RNA array
# Procedure, shortened: as §1
# glucosamine-6-phosphate [7] = variants of: B1; experiment: self-cleavage kobs at 10000 uM GlcN6P; higher = faster cleavage; RNA array
# Procedure, shortened: as §1
Variant,kcat (glucosamine-6-phosphate [1]),KM (glucosamine-6-phosphate [2]),self-cleavage kobs at 40 uM GlcN6P (glucosamine-6-phosphate [3]),self-cleavage kobs at 160 uM GlcN6P (glucosamine-6-phosphate [4]),self-cleavage kobs at 640 uM GlcN6P (glucosamine-6-phosphate [5]),self-cleavage kobs at 2500 uM GlcN6P (glucosamine-6-phosphate [6]),self-cleavage kobs at 10000 uM GlcN6P (glucosamine-6-phosphate [7])
G37A C71U,0.00282 ± 0.00026 s⁻¹,2690 ± 370 µM,4.51e-05 ± 4.2e-06 s⁻¹,0.000172 ± 1.9e-05 s⁻¹,0.000478 ± 4.3e-05 s⁻¹,0.0015 ± 0.00028 s⁻¹,0.00225 ± 0.00014 s⁻¹
A6G C67U,0.000111 ± 4.4e-05 s⁻¹,–,–,–,–,–,8.08e-05 ± 7.3e-06 s⁻¹
G13A C68G,1.81e-05 ± 5e-06 s⁻¹,–,–,–,–,–,–
U57C U65G,3.4e-05 ± 3.5e-06 s⁻¹,–,–,–,–,3.03e-05 ± 1.3e-05 s⁻¹,3.07e-05 ± 1.1e-05 s⁻¹
A39G U55C,0.0858 ± 0.023 s⁻¹,3000 ± 920 µM,0.00123 ± 0.00015 s⁻¹,0.00406 ± 0.0011 s⁻¹,0.0122 ± 0.0029 s⁻¹,–,0.0709 ± 0.018 s⁻¹
C16G U30A U65G,0.000143 ± 7.4e-06 s⁻¹,4140 ± 530 µM,–,–,–,5.44e-05 ± 2e-05 s⁻¹,0.000101 ± 2.1e-05 s⁻¹
A14G C70A,0.000511 ± 0.0001 s⁻¹,256 ± 76 µM,6.67e-05 ± 5.7e-06 s⁻¹,0.000287 ± 4.4e-05 s⁻¹,0.000328 ± 4.7e-05 s⁻¹,0.000484 ± 8.1e-05 s⁻¹,–
A39U U47G,0.00519 ± 0.00052 s⁻¹,1940 ± 270 µM,0.000119 ± 1.7e-05 s⁻¹,0.000358 ± 4.8e-05 s⁻¹,0.00132 ± 0.00018 s⁻¹,0.00285 ± 0.00052 s⁻¹,0.00439 ± 0.00057 s⁻¹
A42G C68A,1.2e-05 ± 4.3e-06 s⁻¹,–,–,–,–,–,–
C61A G66U,< 1e-05 s⁻¹,–,–,–,–,–,–
U31A C67G,0.000586 ± 0.00013 s⁻¹,3660 ± 1500 µM,–,–,0.0001 ± 2.6e-05 s⁻¹,0.000201 ± 4.4e-05 s⁻¹,0.000456 ± 7.3e-05 s⁻¹
G32C G37C,< 1e-05 s⁻¹,–,< 1e-05 s⁻¹,–,–,–,< 1e-05 s⁻¹
A39C U46C U56C,0.000367 ± 3.7e-05 s⁻¹,2880 ± 510 µM,–,–,6.45e-05 ± 1.5e-05 s⁻¹,0.000196 ± 5.6e-05 s⁻¹,0.000277 ± 5.9e-05 s⁻¹
U55C C61G,< 1e-05 s⁻¹,–,< 1e-05 s⁻¹,–,–,–,< 1e-05 s⁻¹
C8G G37U,< 1e-05 s⁻¹,–,–,< 1e-05 s⁻¹,–,–,–
A33U U49G,1.42e-05 ± 5.2e-07 s⁻¹,44.7 ± 12 µM,–,< 1e-05 s⁻¹,< 1e-05 s⁻¹,–,–
U56G C58A,0.000993 ± 0.00023 s⁻¹,6930 ± 2300 µM,–,–,7.48e-05 ± 1.1e-05 s⁻¹,0.000312 ± 3.6e-05 s⁻¹,0.000556 ± 7.1e-05 s⁻¹
A48G U65A,< 1e-05 s⁻¹,–,–,< 1e-05 s⁻¹,–,–,–
G13U U57C,4.31e-05 ± 6.8e-06 s⁻¹,–,–,–,–,3.41e-05 ± 1.3e-05 s⁻¹,3.63e-05 ± 1.8e-05 s⁻¹

Variant,kcat (glucosamine-6-phosphate [1]),KM (glucosamine-6-phosphate [2]),self-cleavage kobs at 40 uM GlcN6P (glucosamine-6-phosphate [3]),self-cleavage kobs at 160 uM GlcN6P (glucosamine-6-phosphate [4]),self-cleavage kobs at 640 uM GlcN6P (glucosamine-6-phosphate [5]),self-cleavage kobs at 2500 uM GlcN6P (glucosamine-6-phosphate [6]),self-cleavage kobs at 10000 uM GlcN6P (glucosamine-6-phosphate [7])
G43U A64G,0.000133 ± 1.2e-05 s⁻¹,6370 ± 1300 µM,–,–,–,3.85e-05 ± 8.6e-06 s⁻¹,8.1e-05 ± 8.2e-06 s⁻¹
G38A C61A,< 1e-05 s⁻¹,–,–,–,–,–,–
U31C C50U,< 1e-05 s⁻¹,–,–,–,–,–,–
U46A C71A,0.00108 ± 0.00054 s⁻¹,–,–,–,0.000259 ± 5.1e-05 s⁻¹,0.000566 ± 0.00015 s⁻¹,0.000724 ± 0.00023 s⁻¹
G29C C68U,0.000269 ± 5.9e-05 s⁻¹,959 ± 460 µM,2.38e-05 ± 1.1e-05 s⁻¹,4.12e-05 ± 5.7e-06 s⁻¹,0.000112 ± 8.7e-06 s⁻¹,0.000172 ± 1.2e-05 s⁻¹,0.000368 ± 3.6e-05 s⁻¹
C50A C67G,2.95e-05 ± 1.1e-05 s⁻¹,–,1.98e-05 ± 9e-06 s⁻¹,–,–,4.73e-05 ± 9.8e-06 s⁻¹,–
C11U A53C,0.000605 ± 0.00015 s⁻¹,3780 ± 1300 µM,–,3.37e-05 ± 1.3e-05 s⁻¹,8.09e-05 ± 1e-05 s⁻¹,0.000307 ± 4.8e-05 s⁻¹,0.000412 ± 6.8e-05 s⁻¹
A39U A52G,0.00113 ± 0.00012 s⁻¹,4750 ± 800 µM,–,5.2e-05 ± 1.4e-05 s⁻¹,0.000134 ± 1.3e-05 s⁻¹,0.000345 ± 5.5e-05 s⁻¹,0.00078 ± 5.8e-05 s⁻¹
A39C C67U,0.000495 ± 9.5e-05 s⁻¹,1150 ± 400 µM,3.13e-05 ± 7.5e-06 s⁻¹,7.1e-05 ± 8.8e-06 s⁻¹,0.000154 ± 1.3e-05 s⁻¹,0.000377 ± 3.5e-05 s⁻¹,0.000443 ± 5.1e-05 s⁻¹
A14G G37C A48G,1.62e-05 ± 5.8e-06 s⁻¹,–,–,–,–,–,–
G44U U65G,0.000347 ± 2.4e-05 s⁻¹,–,–,–,–,5.71e-05 ± 1.8e-05 s⁻¹,0.000152 ± 2.6e-05 s⁻¹
G37A A53C C71U,9.8e-05 ± 3.3e-06 s⁻¹,1010 ± 85 µM,–,–,3.79e-05 ± 1.4e-05 s⁻¹,6.98e-05 ± 1.5e-05 s⁻¹,–
A48U A64G,0.00341 ± 0.00044 s⁻¹,5500 ± 1100 µM,2.41e-05 ± 7.5e-06 s⁻¹,8.32e-05 ± 1.7e-05 s⁻¹,0.000385 ± 7.8e-05 s⁻¹,0.0012 ± 0.00016 s⁻¹,0.00214 ± 0.00022 s⁻¹
A14G G37A,0.00833 ± 0.0023 s⁻¹,3890 ± 1400 µM,0.000119 ± 1.7e-05 s⁻¹,0.00027 ± 3.3e-05 s⁻¹,0.00126 ± 0.00017 s⁻¹,0.00399 ± 0.0005 s⁻¹,0.00564 ± 0.00066 s⁻¹
G59U C67A,1.11e-05 ± 3.2e-06 s⁻¹,–,< 1e-05 s⁻¹,–,–,–,–
A39G G66C,0.00327 ± 0.0016 s⁻¹,–,7.7e-05 ± 2.6e-05 s⁻¹,0.000141 ± 3.4e-05 s⁻¹,0.000484 ± 9.6e-05 s⁻¹,0.00169 ± 0.00033 s⁻¹,–
A42G A53C,0.00933 ± 0.0027 s⁻¹,1540 ± 610 µM,0.000286 ± 5.1e-05 s⁻¹,0.000666 ± 0.00018 s⁻¹,0.00271 ± 0.00065 s⁻¹,0.0112 ± 0.0032 s⁻¹,0.0076 ± 0.0015 s⁻¹
C61G C67A,2.67e-05 ± 6.5e-06 s⁻¹,–,–,–,3.33e-05 ± 1.4e-05 s⁻¹,–,–
